Results as given in patent publication US20250215091A1, “Anti-GAL3 Antibodies and Compositions” (Les Laboratoires Servier, priority 2022, published 2025).

Columns and labels:
[1] = target: T1, full length human Galectin-3 (human, UniProt P17931 2-250); assay: SPR Biacore T-200, antibody captured by anti-human Fc, Gal3 in solution
T1 construct: Printed as 'full length'; recombinant, immobilized through a histidine tag; also called hu-Gal3-FL; Hu-Gal3-FL
Description: (§1) The CM5 sensor surface was first immobilized with an anti-human Fc mAb using a standard protocol. The entire sensor surface was first activated by injecting a 1:1 (v/v) mixture of 400 mM EDC and 100 mM NHS at a flow rate of 10 μL/minute for 7 minutes. Monoclonal anti-human Fc antibody (Millipore AP113), 25 μg/mL in Na acetate pH5, 360 s were flowed at 10 μL/minute to reach 10000 RU on both flow cells followed by the injection of 1 M ethanolamine, pH8.5 for 7 minutes at a flow rate of 10 μL/minute. During the entire immobilization procedure, HBS-P was used as the running buffer.
(§2) Antibody samples were prepared at 5 μg/ml and were injected for 30 seconds at 10 μL/minute. In general, 400 to 680 resonance units of antibodies were captured on the chip.

[2] = target: T2, full length mouse Galectin-3 (mouse, UniProt P16110 2-264); assay: as above
T2 construct: Printed as 'full length'; recombinant, immobilized through a histidine tag; also called m-Gal3-FL; murine Gal3
Description: as §1, §2

[3] = target: T3, human full-length Galectin-1 (human, UniProt P09382 2-135); assay: ELISA on immobilised antigen (3 µg/mL), purified IgG at 15-20 µg/mL, anti-Fab.HRP, OD 450 nm
T3 construct: full-length; Histidine-tagged; also called Hu-Gall; Gall
Description: (§3) IgG specificity to Gal3 was tested by checking the absence of binding on human Gall and Gal7 by ELISA.
(§4) Hu-Gall and Hu-Gal7 were immobilized at 3 μg/mL. Purified IgGs were added into the wells (15-20 μg/mL final concentration) and detected with an anti-Fab.HRP antibody. Rabbit antibodies directed against Gall (Abcam ab25138 reference) and Gal7 (Abcam ab108623 reference) were used at 5 μg/mL as antigen-coating positive controls and detected with an anti-rabbit.HRP secondary antibody (7074S-Cell Signaling reference).

[4] = target: T4, human full-length Galectin-7 (human, UniProt P47929 1-136); assay: as above
T4 construct: full-length; Histidine-tagged; also called Hu-Gal7; Gal7
Description: as §3, §4

[5] = target: T2, full length mouse Galectin-3; assay: dose-response ELISA on immobilized m-Gal3-FL, IgG
Description: (§5) To determine the half maximal effective concentration (EC50) of the antibodies, ELISA dose-response experiments were performed on Hu-Gal3-FL and on m-Gal3-FL.
(§6) Hu-Gal3-FL and m-Gal3-FL were immobilized at 3 μg/mL through their His-tag on functionalized microplates as before. A 3.3-fold serial dilution was carried-out with the purified IgGs, added to the wells containing immobilized Hu-Gal3-FL or m-Gal3-FL and detected with an anti-Fab.HRP antibody.

[6] = target: T1, full length human Galectin-3; assay: dose-response ELISA on immobilized Hu-Gal3-FL, IgG
Description: as §5, §6

[7] = target: T2, full length mouse Galectin-3; assay: ratio of the ELISA EC50 values on Hu-Gal3-FL and m-Gal3-FL
Description: as §5, §6

[8] = target: T5, CRD domain of human Galectin-3 (human, UniProt P17931 106-250); assay: competitive ELISA, inhibition of ASF binding to immobilized Hu-Gal3-CRD
T5 construct: Histidine-tagged; also called hu-Gal3-CRD; Hu-Gal3-CRD
Description: The inhibitory properties and IC50 of the anti-Gal3 antibodies were determined in an ELISA competitive assay by measuring the binding of ASF to immobilized CRD domain of human Gal3 in absence or presence of the antibodies at different concentrations.
The inhibition assay was performed on Hu-Gal3-CRD which was immobilized at 1 μg/mL through its His-tag on functionalized microplates. A 2-fold or 3-fold serial dilution was carried-out with the purified IgGs and added to the wells with immobilized Hu-Gal3-CRD. ASF (A1908-Sigma reference) was added at 8 μg/mL in each well with or without IgGs. ASF binding to Hu-Gal3-CRD was detected with the HRP-labeled anti-ASF sheep antibody. IC50 were estimated according to the model equation Y=Bottom+(Top−Bottom)/(1+(X/IC50)). Indicative maximal percentages of inhibition were obtained with the formula: 100%−(((mean of bottom plateau values of IgGs)×100%)/mean of irrelevant IgG values)

T5 sequence (P17931 106-250 limits assumed): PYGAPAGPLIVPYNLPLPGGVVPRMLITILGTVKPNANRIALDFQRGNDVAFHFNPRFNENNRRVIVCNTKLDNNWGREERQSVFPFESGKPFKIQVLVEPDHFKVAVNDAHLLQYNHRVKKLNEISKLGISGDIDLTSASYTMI
T2 sequence (P16110 2-264 limits assumed): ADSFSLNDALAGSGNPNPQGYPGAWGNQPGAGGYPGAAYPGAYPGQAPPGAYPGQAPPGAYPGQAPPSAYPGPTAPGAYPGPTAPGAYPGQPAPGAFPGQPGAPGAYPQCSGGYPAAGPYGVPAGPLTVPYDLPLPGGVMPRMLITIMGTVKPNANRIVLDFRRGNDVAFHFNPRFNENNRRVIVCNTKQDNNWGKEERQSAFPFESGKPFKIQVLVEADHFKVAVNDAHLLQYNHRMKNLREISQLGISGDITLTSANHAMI
T4 sequence (P47929 whole entry): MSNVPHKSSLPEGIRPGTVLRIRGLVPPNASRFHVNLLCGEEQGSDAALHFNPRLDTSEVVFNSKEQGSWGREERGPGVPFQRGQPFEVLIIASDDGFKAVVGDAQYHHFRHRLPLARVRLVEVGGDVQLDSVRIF
T3 sequence (P09382 2-135 limits assumed): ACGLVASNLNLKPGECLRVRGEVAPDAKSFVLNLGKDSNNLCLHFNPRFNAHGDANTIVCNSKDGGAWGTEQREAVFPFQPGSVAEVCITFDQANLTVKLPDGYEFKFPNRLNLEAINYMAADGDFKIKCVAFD
T1 sequence (P17931 2-250 limits assumed): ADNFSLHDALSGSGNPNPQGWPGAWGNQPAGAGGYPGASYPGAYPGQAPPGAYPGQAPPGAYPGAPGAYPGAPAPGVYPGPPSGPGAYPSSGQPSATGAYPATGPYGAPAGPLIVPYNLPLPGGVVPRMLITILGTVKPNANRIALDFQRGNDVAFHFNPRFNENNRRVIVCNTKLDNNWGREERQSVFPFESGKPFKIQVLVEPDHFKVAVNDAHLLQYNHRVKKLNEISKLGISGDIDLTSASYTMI

| Kd [1] | Kd [2] | binding result [3] | binding result [4] | EC50 [5] | EC50 [6] | Ratio (Human/mouse Gal3 EC50 ratio) [7] | IC50 [8] | Max % inhibition [8] | Binder |
| --- | --- | --- | --- | --- | --- | --- | --- | --- | --- |
| 6.64 nM | 7.7 nM | no binding (tested: 15-20 µg/mL) | no binding (tested: 15-20 µg/mL) | – | – | – | – | – | anti-Gal3 antibody E12 (antibody, V domains shown) VH: EVQLVESGGSLVKPGGSLRLSCAASGFTFSNYAMNWVRQAPGKGLEWISSIYGSSRSIYYADFVKGRFTISRDNAKNSLYLQMNSLRAEDTAVYYCVRSNNAGMDVWGRGTLVTVSS VL: QSVLTQPASVSGSPGQSITISCAGTSSDVGGYYDVSWYQQHPGKAPKLMIYYDSYRPSGVSNRFSGSKSGNTASLTISGLQAEDEADYYCSSYTSYSTRVFGGGTKLEIK |
| 8.8 nM | 3.47 nM | no binding (tested: 15-20 µg/mL) | no binding (tested: 15-20 µg/mL) | – | – | – | – | – | anti-Gal3 antibody B12 (antibody, V domains shown) VH: EVQLVESGGSLVKPGGSLRLSCAASGFTFSNDDMNWVRQAPGKGLEWISSIDGSSRSIYYADFVKGRFTISRDNAKNSLYLQMNSLRAEDTAVYYCVRSSGYSGGGMDVWGRGTLVTVSS VL: QSVLTQPASVSGSPGQSITISCAGTSSDVGGSYNVAWYQQHPGKAPKLMIYSDSYRPSGVSNRFSGSKSGNTASLTISGLQAEDEADYYCSSYTSNSARVFGGGTKLEIK |
| 6 nM | 4.53 nM | no binding (tested: 15-20 µg/mL) | no binding (tested: 15-20 µg/mL) | 13.6 nM | 0.52 nM | 26 | 1.8 nM | 83% | anti-Gal3 antibody G03 (antibody, V domains shown) VH: EVQLVESGGSLVKPGGSLRLSCAASGFTFSNYAMNWVRQAPGKGLEWISSIYGSSRYIYYADFVKGRFTISRDNAKNSLYLQMNSLRAEDTAVYYCVRSYNGGMDVWGRGTLVTVSS VL: QSVLTQPASVSGSPGQSITISCAGTSSDVGGYYNVAWYQQHPGKAPKLMIYYDSYRPSGVSNRFSGSKSGNTASLTISGLQAEDEADYYCSSSTGYSTRVFGGGTKLEIK |
| 7.38 nM | 4.13 nM | no binding (tested: 15-20 µg/mL) | no binding (tested: 15-20 µg/mL) | 76 nM | 34 nM | 2 | 5.2 nM | 65% | anti-Gal3 antibody E02 (antibody, V domains shown) VH: EVQLVESGGSLVKPGGSLRLSCAASGFTFSNYAMNWVRQAPGKGLEWISSIYGSSRSISYADFVKGRFTISRDNAKNSLYLQMNSLRAEDTAVYYCVRSSYNYYYGNGMDVWGRGTLVTVSS VL: QSVLTQPASVSGSPGQSITISCAGTSSDVGGYGGVSWYQQHPGKAPKLMIYYDSYRPSGVSNRFSGSKSGNTASLTISGLQAEDEADYYCSSSTSYSTRVFGGGTKLEIK |
| 6.26 nM | 7.81 nM | no binding (tested: 15-20 µg/mL) | no binding (tested: 15-20 µg/mL) | 25.9 nM | 14.3 nM | 2 | 3.2 nM | 63% | anti-Gal3 antibody E01 (antibody, V domains shown) VH: EVQLVESGGSLVKPGGSLRLSCAASGFTFSNNYMNWVRQAPGKGLEWISNINGASRNIAYADFVKGRFTISRDNAKNSLYLQMNSLRAEDTAVYYCVRSSDYDGGMDVWGRGTLVTVSS VL: QSVLTQPASVSGSPGQSITISCAGTSSDVGGNSYVSWYQQHPGKAPKLMIYYDSYRPSGVSNRFSGSKSGNTASLTISGLQAEDEADYYCSSSTYGSTRVFGGGTKLEIK |
| 5.65 nM | 4.86 nM | no binding (tested: 15-20 µg/mL) | no binding (tested: 15-20 µg/mL) | 88 nM | 2.4 nM | 37 | 6 nM | 74% | anti-Gal3 antibody H07 (antibody, V domains shown) VH: EVQLVESGGSLVKPGGSLRLSCAASGFTFSNYNMNWVRQAPGKGLEWISNIDGSSRYIYYADFVKGRFTISRDNAKNSLYLQMNSLRAEDTAVYYCVRSYYGGMDVWGRGTLVTVSS VL: QSVLTQPASVSGSPGQSITISCAGTSSDVGGYYNVAWYQQHPGKAPKLMIYYDSYRPSGVSNRFSGSKSGNTASLTISGLQAEDEADYYCSSSTGYSTRVFGGGTKLEIK |
